T1: rHuman Erythropoietin R/Fc Chimera, CF (R&D Systems Cat#963-ER) (human, UniProt P19235 25-250)
T1 construct: Bought reagent; also called EPO R/Fc; Epo R; Fc part of the bought chimera not given
T1 sequence: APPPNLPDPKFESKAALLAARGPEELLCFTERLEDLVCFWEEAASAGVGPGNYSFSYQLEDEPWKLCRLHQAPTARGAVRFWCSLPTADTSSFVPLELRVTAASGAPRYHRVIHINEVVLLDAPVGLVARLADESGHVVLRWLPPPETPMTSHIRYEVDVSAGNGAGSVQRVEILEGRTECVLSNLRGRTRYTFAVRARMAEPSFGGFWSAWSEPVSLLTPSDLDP


Experiments:
[1] = target: T2, rHuman Notch-1/Fc Chimera, CF (R&D Systems Cat#3647-TK) (human, UniProt P46531 19-526); test: MSD ECL multi-spot plate, antigen immobilized; Fab 40 nM; blank spot 502
T2 construct: Purchased Fc chimera; not shown: Fc portion of the purchased chimera

[2] = target: T3, rHuman HGF R/c-MET/Fc Chimera, CF (R&D Systems Cat#358-MT/CF) (human, UniProt P08581 25-932); test: as above
T3 construct: Purchased Fc chimera; also called HGF R/Fc; not shown: Fc portion of the purchased chimera

[3] = target: T4, rHuman IGF-1 sR (IGF-1 sR), CF (R&D Systems Cat#391-GR) (human, UniProt P08069 31-932); test: as above
T4 construct: Purchased soluble receptor; also called insulin-like growth factor-1 soluble receptor; IGF-R1

[4] = target: T5, rHuman ErbB2/Fc Chimera, CF (R&D Systems Cat#1129-ER) (human, UniProt P04626 23-652); test: as above
T5 construct: Purchased Fc chimera; also called HER2/neu; not shown: Fc portion of the purchased chimera

[5] = target: T6, rHuman CD44/Fc Chimera, CF (R&D Systems Cat#3660-CD) (human, UniProt P16070 21-220); test: as above
T6 construct: Purchased Fc chimera; not shown: Fc portion of the purchased chimera

[6] = target: T7, rHuman P-Cadherin/Fc Chimera, CF (R&D Systems Cat#861-PC) (human, UniProt P22223 108-654); test: as above
T7 construct: Purchased Fc chimera; not shown: Fc portion of the purchased chimera

[7] = target: T8, rHuman EGF R/Fc Chimera, CF (R&D Systems Cat#344-ER) (human, UniProt P00533 25-645); test: as above
T8 construct: Purchased Fc chimera; not shown: Fc portion of the purchased chimera

[8] = target: T1, rHuman Erythropoietin R/Fc Chimera, CF …; test: ECL (MSD multi-spot), antigen spotted on plate; Fab 11 nM; blank spot 212
[9] = target: T9, rHuman IGF-1 sR (IGF-1 sR), CF (R&D Systems Cat#391-GR) (human, UniProt P08069 31-932); test: as above
T9 construct: Bought soluble receptor; also called insulin-like growth factor-1 soluble receptor; IGF-R1

[10] = target: T10, rHuman P-Cadherin/Fc Chimera, CF (R&D Systems Cat#861-PC) (human, UniProt P22223 108-654); test: as above
T10 construct: Bought reagent; also called CDH3; Fc part of the bought chimera not given

[11] = target: T11, rHuman Notch-1/Fc Chimera, CF (R&D Systems Cat#3647-TK) (human, UniProt P46531 19-526); test: as above
T11 construct: Bought reagent; Fc part of the bought chimera not given

[12] = target: T12, rHuman CD44/Fc Chimera, CF (R&D Systems Cat#3660-CD) (human, UniProt P16070 21-220); test: as above
T12 construct: Bought reagent; Fc part of the bought chimera not given

[13] = target: T13, Recombinant Human DLL4 (R&D Systems Cat#1506-D4/CF) (human, UniProt Q9NR61 27-524); test: as above
T13 construct: Bought reagent; also called delta-like protein 4

[14] = target: T14, rHuman HGF R/c-MET/Fc Chimera, CF (R&D Systems Cat#358-MT/CF) (human, UniProt P08581 25-932); test: as above
T14 construct: Bought reagent; also called HGF R/Fc; hepatocyte growth factor receptor; Fc part of the bought chimera not given

[15] = target: T15, rHuman EGF R/Fc Chimera, CF (R&D Systems Cat#344-ER) (human, UniProt P00533 25-645); test: as above
T15 construct: Bought reagent; also called epidermal growth factor receptor; Fc part of the bought chimera not given

[16] = target: T16, rHuman ErbB2/Fc Chimera, CF (R&D Systems Cat#1129-ER) (human, UniProt P04626 23-652); test: as above
T16 construct: Bought reagent; also called HER2/neu; human epidermal growth factor 2 receptor; Fc part of the bought chimera not given

[17] = target: T9, rHuman IGF-1 sR (IGF-1 sR), CF (R&D …); test: ECL (MSD multi-spot), antigen spotted on plate; Fab 88.1 nM; blank spot 301
[18] = target: T12, rHuman CD44/Fc Chimera, CF (R&D Systems …); test: as above
[19] = target: T16, rHuman ErbB2/Fc Chimera, CF (R&D …); test: as above
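Further: blank spot per well as comparator with Hit at signal to blank ratio of 4 or more.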

| ECL signal [1] [ECL signal] | ECL signal [2] [ECL signal] | ECL signal [3] [ECL signal] | ECL signal [4] [ECL signal] | ECL signal [5] [ECL signal] | ECL signal [6] [ECL signal] | ECL signal [7] [ECL signal] | ECL signal [8] | ECL signal [9] | ECL signal [10] | ECL signal [11] | ECL signal [12] | ECL signal [13] | ECL signal [14] | ECL signal [15] | ECL signal [16] | ECL signal [17] | ECL signal [18] | ECL signal [19] | Binder |
| --- | --- | --- | --- | --- | --- | --- | --- | --- | --- | --- | --- | --- | --- | --- | --- | --- | --- | --- | --- |
| 1010 | 1230 | 1240 | 1420 | 824 | 1020 | 1110 |  |  |  |  |  |  |  |  |  |  |  |  | Fab VH5-51_IGHD5-18*01>3_IGHJ4*01_G100R & V3-4_IGLJ1*01 (Fab, V domains shown, It was expressed as a Fab: CH1 with tags from Plasmid A and lambda CL from Plasmid E; also called Fab No. 23) VH: EVQLVQSGAEVKKPGESLKISCKGSGYSFTSYWIGWVRQMPGKGLEWMGIIYPGDSDTRYSPSFQGQVTISADKSISTAYLQWSSLKASDTAMYYCARRRYSYGYDYFDYWGQGTLVTVSS VL: QTVVTQEPSFSVSPGGTVTLTCGLSSGSVSTSYYPSWYQQTPGQAPRTLIYSTNTRSSGVPDRFSGSILGNKAALTITGAQADDESDYYCVLYMGSGISYVFGTGTKVTVL |
|  |  |  |  |  |  |  | 1820 | 289 | 270 | 404 | 296 | 254 | 268 | 201 | 216 | 273 | 340 | 200 | Fab VH1-46_IGHD3-10*01_IGHJ4*01 & B3_IGKJ1*01 (Fab, V domains shown, also called IGHV1-46*01) VH: QVQLVQSGAEVKKPGASVKVSCKASGYTFTSYYMHWVRQAPGQGLEWMGIINPSGGSTSYAQKFQGRVTMTRDTSTSTVYMELSSLRSEDTAVYYCAREYYYGSGSYYNDYFDYWGQGTLVTVSS VL: not shown |

— patent US20120058906A1 (published 2012)
